The target of test [1] is T1, human serum albumin (human, UniProt P02768 25-609).
T1 construct: also called HSA; SA
Put plainly: SPR (ProteOn XPR36), target on GLC chip, DARPin as analyte. The text has this: (§1) For that, DARPin® protein #27, DARPin® protein #29, DARPin® protein #47 and DARPin® protein #48 and DARPin® protein #49, DARPin® protein #50, DARPin® protein #51, DARPin® protein #52, DARPin® protein #31, DARPin® protein #53, DARPin® protein #54, DARPin® protein #55, DARPin® protein #34, DARPin® protein #33, DARPin® protein #39 and DARPin® protein #36 were subcloned and expressed as described above into derivatives of the pQE30 (Qiagen) expression vector, containing an N-terminal His-tag, CD33, CD123 and/or CD70 binding ankyrin repeat domains, followed by a CD3 specific ankyrin repeat domain and for some constructs by a human serum albumin specific ankyrin repeat domain.
(§2) Briefly, biotinylated human CD70, CD123 and CD33 was diluted in PBST (PBS, pH 7.4 containing 0.005% Tween 20®) and coated on a GLC chip (BioRad) to a level of around 200, 460 and 450 resonance units (RU) respectively. HSA in NaOAc pH 5.0 was directly immobilized on the GLC chip to a level of 800 RU. Bio.CD70, bio. CD33 and bio. CD123 required to have Neutravidin coated first to a level of 6000 RU before the biotinylated targets could be applied. The interaction of the selected ankyrin repeat proteins and human CD70, CD123 and CD33 was then measured by injecting 300 μl running buffer (PBS, pH 7.4 containing 0.005% Tween 20®) containing serial dilutions of ankyrin repeat proteins covering a concentration range between 100 nM and 2.6 nM (100, 40, 16, 6.4 and 2.6 nM respectively) for multi-trace SPR measurements, with an association of 120 s and dissociation of 1200 s using a constant flow of 100 μl/min. The regeneration was performed using 30 μl of 4 mM Glycine pH 2. The signals (i.e. resonance unit (RU) values) of the interspots and a reference injection (i.e. injection of running buffer only) were subtracted from the RU traces obtained after injection of ankyrin repeat protein (double-referencing).

Test [2] concerns the target T2, biotinylated extracellular domain of human CD33 (SEQ ID NO: 87), Fc and Avi tagged (human, UniProt P20138 18-259, biotinylated with BirA-GST (Avi tag)).
T2 construct: also called hCD33; human target hCD33
The test is described as above.
Source text: as §1, §2

Test [3] concerns the target T3, biotinylated extracellular domain of human CD123 (SEQ ID NO: 88), Fc and Avi tagged (human, UniProt P26951 19-303, biotinylated with BirA-GST (Avi tag)).
T3 construct: also called hCD123
T3 sequence: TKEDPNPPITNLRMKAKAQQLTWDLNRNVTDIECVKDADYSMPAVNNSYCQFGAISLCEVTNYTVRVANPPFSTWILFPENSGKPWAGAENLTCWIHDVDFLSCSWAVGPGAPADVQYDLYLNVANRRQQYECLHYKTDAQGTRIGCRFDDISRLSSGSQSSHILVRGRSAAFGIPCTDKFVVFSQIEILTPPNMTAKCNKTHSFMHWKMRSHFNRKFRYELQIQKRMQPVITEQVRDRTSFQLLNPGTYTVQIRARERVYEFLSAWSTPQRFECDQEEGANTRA
The test is described as above.
Source text: as §1, §2

Test [4] has as its target T4, extracellular domain of human CD70 (SEQ ID NO: 89), hCD70-Fc-trimer, ACRO Biosystems (human, UniProt P32970 52-193, chemically biotinylated where the biotinylated form was used).
T4 construct: also called human CD70-Fc-trimer; Bio.CD70
T4 sequence: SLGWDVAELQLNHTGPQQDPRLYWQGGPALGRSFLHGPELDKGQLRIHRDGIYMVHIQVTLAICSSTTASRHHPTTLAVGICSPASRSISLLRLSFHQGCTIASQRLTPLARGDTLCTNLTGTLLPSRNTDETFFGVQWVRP
The test is described as follows: SPR (ProteOn XPR36), target on GLC chip.
Source text: as §1, §2

Test [5] concerns the target T4, extracellular domain of human CD70 (SEQ …). The test is described as follows: SPR (ProteOn XPR36), target on GLC chip, DARPin as analyte.
Source text: as §1, §2

Test [6] has as its target T3, biotinylated extracellular domain of …. The test is described as follows: SPR (ProteOn XPR36), target on GLC chip.
Source text: as §1, §2

Test [7] has as its target T1, human serum albumin. Put plainly: SPR (ProteOn XPR36), target on GLC chip.
Source text: as §1, §2

T2 sequence (P20138 18-259 R69G): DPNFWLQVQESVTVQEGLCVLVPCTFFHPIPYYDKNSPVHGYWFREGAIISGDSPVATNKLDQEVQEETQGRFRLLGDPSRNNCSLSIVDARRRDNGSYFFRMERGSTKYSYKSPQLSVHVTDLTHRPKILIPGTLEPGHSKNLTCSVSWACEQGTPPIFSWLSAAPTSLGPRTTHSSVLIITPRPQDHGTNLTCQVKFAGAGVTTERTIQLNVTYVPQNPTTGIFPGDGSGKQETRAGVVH
T1 sequence (P02768 25-609 limits assumed): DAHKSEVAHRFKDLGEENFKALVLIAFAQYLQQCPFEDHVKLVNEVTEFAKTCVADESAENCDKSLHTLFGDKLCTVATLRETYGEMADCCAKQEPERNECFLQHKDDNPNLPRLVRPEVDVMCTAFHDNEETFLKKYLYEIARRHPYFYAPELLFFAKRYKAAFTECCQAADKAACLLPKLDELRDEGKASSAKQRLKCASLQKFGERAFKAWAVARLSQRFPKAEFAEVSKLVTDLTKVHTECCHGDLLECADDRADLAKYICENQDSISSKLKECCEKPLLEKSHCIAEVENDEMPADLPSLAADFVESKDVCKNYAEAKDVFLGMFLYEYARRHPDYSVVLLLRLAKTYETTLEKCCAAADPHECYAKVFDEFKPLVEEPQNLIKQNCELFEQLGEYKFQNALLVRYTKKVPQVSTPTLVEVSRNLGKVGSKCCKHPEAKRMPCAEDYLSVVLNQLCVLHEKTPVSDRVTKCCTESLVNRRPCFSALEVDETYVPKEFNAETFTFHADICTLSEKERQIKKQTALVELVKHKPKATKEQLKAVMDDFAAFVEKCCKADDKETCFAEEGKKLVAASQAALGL

B1: DARPin® protein #47 (designed binder)
chain: DLGKKLLEAARAGQDDEVRELLKAGADVNAKDYFSHTPLHLAARNGHLKIVEVLLKAGADVNAKDFAGKTPLHLAAADGHLEIVEVLLKAGADVNAQDIFGKTPADIAADAGHEDIAEVLQKAAGSPTPTPTTPTPTPTTPTPTPTGSDLGKKLLEAALEGQLDEVRELLKAGADVNAKDQEGYTPLHLAAALGHLEIVEVLLKAGADVNAKDSIGRTPLHLAAYKGHLEIVEVLLKAGADVNAQDLLGETPADLAAEQGHQDIAEVLQKAAGSPTPTPTTPTPTPTTPTPTPTGSDLGVKLLLAASRGQLDEVRILLKAGADVNAKDIDEGYTPLHIAAYYGHLEIVEVLLKAGADVNAKDRYGKTPLHLAAISGHLEIVEVLLKAGADVNAQDDKGDTPADLAADYGHQDIAEVLQKAAGSPTPTPTTPTPTPTTPTPTPTGSDLGQKLLEAAWAGQDDEVRELLKAGADVNAKNSRGWTPLHTAAQTGHLEIFEVLLKAGADVNAKDDKGVTPLHLAAALGHLEIVEVLLKAGADVNAQDSWGTTPADLAAKYGHEDIAEVLQKAA
notes: HSA-CD123-CD33-CD3; not shown: N-terminal His-tag
With B1, the Kd in test [1] was 15 nM; in test [2], 5.4 nM; in test [3], 8 nM. Besides, the binding result in test [4] is listed as “no binding (tested: 100 nM (highest concentration))”.

B2: DARPin® protein #52 (designed binder)
chain: DLGYKLLQAAYDGQLDEVRILLKAGADVNAKDSRGQTPLHYAASIGHLEIVEVLLKAGADVNAKDDHGWTPLHLAAWSGHLEIVEVLLKAGADVNAQDQEGTTPADLAAVQGHQDIAEVLQKAAGSPTPTPTTPTPTPTTPTPTPTGSDLGVKLLLAASRGQLDEVRILLKAGADVNAKDIDEGYTPLHIAAYYGHLEIVEVLLKAGADVNAKDRYGKTPLHLAAISGHLEIVEVLLKAGADVNAQDDKGDTPADLAADYGHQDIAEVLQKAAGSPTPTPTTPTPTPTTPTPTPTGSDLGQKLLEAAWAGQDDEVRELLKAGADVNAKNSRGWTPLHTAAQTGHLEIFEVLLKAGADVNAKDDKGVTPLHLAAALGHLEIVEVLLKAGADVNAQDSWGTTPADLAAKYGHEDIAEVLQKAAGSPTPTPTTPTPTPTTPTPTPTGSDLGKKLLEAARAGQDDEVRELLKAGADVNAKDYFSHTPLHLAARNGHLKIVEVLLKAGADVNAKDFAGKTPLHLAAADGHLEIVEVLLKAGADVNAQDIFGKTPADIAADAGHEDIAEVLQKAA
notes: not shown: N-terminal His-tag
Take B2: the Kd stood at 48 nM in test [1], 5.7 nM in test [2] and 0.27 nM in test [5]. The binding result in test [6] was “no binding (tested: 100 nM (highest concentration))”.

B3: DARPin® protein #49 (designed binder)
chain: DLGKKLLEAALEGQLDEVRELLKAGADVNAKDQEGYTPLHLAAALGHLEIVEVLLKAGADVNAKDSIGRTPLHLAAYKGHLEIVEVLLKAGADVNAQDLLGETPADLAAEQGHQDIAEVLQKAAGSPTPTPTTPTPTPTTPTPTPTGSDLGVKLLLAASRGQLDEVRILLKAGADVNAKDIDEGYTPLHIAAYYGHLEIVEVLLKAGADVNAKDRYGKTPLHLAAISGHLEIVEVLLKAGADVNAQDDKGDTPADLAADYGHQDIAEVLQKAAGSPTPTPTTPTPTPTTPTPTPTGSDLGQKLLEAAWAGQDDEVRELLKAGADVNAKNSRGWTPLHTAAQTGHLEIFEVLLKAGADVNAKDDKGVTPLHLAAALGHLEIVEVLLKAGADVNAQDSWGTTPADLAAKYGHEDIAEVLQKAAGSPTPTPTTPTPTPTTPTPTPTGSDLGKKLLEAARAGQDDEVRELLKAGADVNAKDYFSHTPLHLAARNGHLKIVEVLLKAGADVNAKDFAGKTPLHLAAADGHLEIVEVLLKAGADVNAQDIFGKTPADIAADAGHEDIAEVLQKAA
notes: CD123-CD33-CD3-HSA; not shown: N-terminal His-tag
Regarding B3, the results for the Kd in test [1], in test [2] and in test [3] were 14 nM, 6.8 nM and 23 nM, respectively. Also, in test [4], the binding result is listed as “no binding (tested: 100 nM (highest concentration))”.

B4: DARPin® protein #36 (designed binder)
chain: DLGVKLLLAASRGQLDEVRILLKAGADVNAKDIDEGYTPLHIAAYYGHLEIVEVLLKAGADVNAKDRYGKTPLHLAAISGHLEIVEVLLKAGADVNAQDDKGDTPADLAADYGHQDIAEVLQKAA
notes: CD33-specific ankyrin repeat domain; not shown: N-terminal His-tag
B4 registered a Kd in test [2] of 6.7 nM. The binding result in test [7], in test [4] and in test [6] was “no binding (tested: 100 nM (highest concentration))” throughout.

B5: DARPin® protein #48 (designed binder)
chain: DLGKKLLEAARAGQDDEVRELLKAGADVNAKDYFSHTPLHLAARNGHLKIVEVLLKAGADVNAKDFAGKTPLHLAAADGHLEIVEVLLKAGADVNAQDIFGKTPADIAADAGHEDIAEVLQKAAGSPTPTPTTPTPTPTTPTPTPTGSDLGKKLLEAARAGQDDEVRELLKAGADVNAKDYFSHTPLHLAARNGHLKIVEVLLKAGADVNAKDFAGKTPLHLAAADGHLEIVEVLLKAGADVNAQDIFGKTPADIAADAGHEDIAEVLQKAAGSPTPTPTTPTPTPTTPTPTPTGSDLGKKLLEAALEGQLDEVRELLKAGADVNAKDQEGYTPLHLAAALGHLEIVEVLLKAGADVNAKDSIGRTPLHLAAYKGHLEIVEVLLKAGADVNAQDLLGETPADLAAEQGHQDIAEVLQKAAGSPTPTPTTPTPTPTTPTPTPTGSDLGVKLLLAASRGQLDEVRILLKAGADVNAKDIDEGYTPLHIAAYYGHLEIVEVLLKAGADVNAKDRYGKTPLHLAAISGHLEIVEVLLKAGADVNAQDDKGDTPADLAADYGHQDIAEVLQKAAGSPTPTPTTPTPTPTTPTPTPTGSDLGQKLLEAAWAGQDDEVRELLKAGADVNAKNSRGWTPLHTAAQTGHLEIFEVLLKAGADVNAKDDKGVTPLHLAAALGHLEIVEVLLKAGADVNAQDSWGTTPADLAAKYGHEDIAEVLQKAA
notes: HSA-HSA-CD123-CD33-CD3; not shown: N-terminal His-tag
For B5, the Kd in test [1] amounted to 1.1 nM; in test [2], 4.2 nM; in test [3], 5.1 nM. For the same molecule, the binding result in test [4] is given as “no binding (tested: 100 nM (highest concentration))”.

B6: DARPin® protein #31 (designed binder)
chain: DLGYKLLQAAYDGQLDEVRILLKAGADVNAKDSRGQTPLHYAASIGHLEIVEVLLKAGADVNAKDDHGWTPLHLAAWSGHLEIVEVLLKAGADVNAQDQEGTTPADLAAVQGHQDIAEVLQKAAGSPTPTPTTPTPTPTTPTPTPTGSDLGKKLLEAALEGQLDEVRELLKAGADVNAKDQEGYTPLHLAAALGHLEIVEVLLKAGADVNAKDSIGRTPLHLAAYKGHLEIVEVLLKAGADVNAQDLLGETPADLAAEQGHQDIAEVLQKAAGSPTPTPTTPTPTPTTPTPTPTGSDLGVKLLRAAVHGQLDEVRILLKAGADVNAKDTDGETPLHYAAQFGHLEIVEVLLKAGADVNAKDAYGATPLHWAAWHGHLEIVEVLLKAGADVNAQDVSGATPADLAAKVGHQDIAEVLQKAAGSPTPTPTTPTPTPTTPTPTPTGSDLGQKLLEAAWAGQDDEVRELLKAGADVNAKNSRGWTPLHTAAQTGHLEIFEVLLKAGADVNAKDDKGVTPLHLAAALGHLEIVEVLLKAGADVNAQDSWGTTPADLAAKYGHEDIAEVLQKAA
notes: CD70-CD123-CD33-CD3; not shown: N-terminal His-tag
Turning to B6, the Kd in test [2] was 11 nM; in test [5] it was 0.31 nM; in test [3], 10 nM. Moreover, in test [7], the binding result was “no binding (tested: 100 nM (highest concentration))”.

The values above are taken from patent US20240254229A1 (Molecular Partners, published 2024).
